Values quoted from earlier work in article PMC7321218, “Synthetic (E)-3-Phenyl-5-(phenylamino)-2-styryl-1,3,4-thiadiazol-3-ium Chloride Derivatives as Promising Chemotherapy Agents on Cell Lines Infected with HTLV-1” (Molecules, 2020).

Test system: adult T-cell leukemia/lymphoma (ATLL)
Design: method as in PMID 25733162
Settings: in combination with multi-agent chemotherapy, improved from 33%; cited from earlier work

B1: Mogamulizumab: anti-CCR4 monoclonal antibody (antibody, chains of the INN, looked up, V domains shown)
VH: EVQLVESGGDLVQPGRSLRLSCAASGFIFSNYGMSWVRQAPGKGLEWVATISSASTYSYYPDSVKGRFTISRDNAKNSLYLQMNSLRVEDTALYYCGRHSDGNFAFGYWGQGTLVTVSS
VL: DVLMTQSPLSLPVTPGEPASISCRSSRNIVHINGDTYLEWYLQKPGQSPQLLIYKVSNRFSGVPDRFSGSGSGTDFTLKISRVEAEDVGVYYCFQGSLLPWTFGQGTKVEIK
In the case of B1, the therapy response is given as 52%.
